# Assay: soluble on expression in E. coli; label from the status in PepcDB or PDB records
row,Sequence,soluble on expression in E. coli
1,MGSDKIHHHHHHMMKLTALVDNTRLDSRPELAVERGLSFHVETMGSQILFDTGSSSTFCENAALMNISIQDVDLAVISHRHHDHCNGTTHFIERNSKAKIYLKDCEDKNYLFKAFGFKNDVGINKELLKNASERLIFVEHTTEILPNIFIITEISDKYEKPKGNRYLYTQSENGYKNDTFDHELLLVVKESDGLIVFTGCAHSGVLNMVETAIELFPNHRIKAVVGGFHLVGLPLLNSIGGTKQDIQAIGQALSHYPIDKLYTGHCTGMKAFGLLKEVLGDRLEHLPTGRSVLI,not soluble
2,MATAAASVVSSETGDLRAYMAANPAAVIEEVAKQWNVSPHAVIAALPDGMARLGPGDGFVAAMNDIATWGEVTLIVHTEDAIFEFTGEVPRGEISRGYFNLMQPKGLHGHLRHDRCGALAFVERPFMGKASAFVAFLNRDGGIMFKVFVGRDANRELRADQLARFHALAKQFSEEHSALEHHHHHH,not soluble
3,MGSDKIHHHHHHMVQREKNVVNEQEIELIIGNSNSNFSGVTSTMLQVLSHEQSLINLRVMGKHHLPDESLSISFWQVANLSTKPLPKGKFRIFHARRVDEMIQALLLKYVFRVKLKIVFSSAAQRYRSGFTLWLTDRMDAVLAMCKASASYLHRKPDAIIYHGVKTDIYLPATDKSKAWQSLGLLPENSAKGKKGIAILGRVRKQKGVHLFVESCIDILKDRPDYTAVIVGSISSSNESFVNELQSKIDQAGLTERIVFAGEQNFADIPKIFSSLSLVVALSENEGFGLTILEAMSSGAAVLASEAGAWPEVVRQGVDGYVVPINDLDAVTEKMSLLLADEEKLMQMGRDGRERVLEHYSVEREAKELVTFFRSLM,not soluble
4,ESNDSGIVVYNAQHENLVKSWVDGFTKDTGIKVTLRNGGDSELGNQLVQEGSASPADVFLTENSPAMVLVDNAKLFAPLDAVTQAQVAQEYRPEHGRWTGIAARSTVFVYNPEKISEAELPKSIMDLAKPEWKGRWAASPSGADFQAIVSAMLELKGEKATLEWLKAMKTNFTAYKGNSTVMKAVNAGQIDGGVIYHYYRFVDQAKTGENSGKTQLHYFKHQDPGAFVSISGGGVLASSKHPKEAQEFVKWITGKSGQDILRTNNAFEYAVGVDAASNPKLVPLKDLDAPKVEPSKLNSKKVVELMTEAGLL,soluble
5,MPAFFVKAGAKKSGGGAAATRKRKNGGKSDAKSEEMAAKMSRRQKIMAATEIHSDEEDSLAGSAAASEAGSDVEYEDAHERNYREAKKLLDKIQSTTTTQEEVAEKLRDDAVARTGTQVKRVADVVELEDDLEISYKPHRLSPLCVAFSPDAKYVISCGKESSIVKFNVGTRKVVGIIKRTKKRAGVPEEPTNAHYGVIFTVAVSPDQKFIASGGFDQVVKAPKNMKILFQIWNFDSLEHIKDLSGHRGPIFSLTFQLKTNNLYSASQDRSVKMWDIDQLGLVDTMYGHQDGVQQIGVLSKQRVATVGGRDRSARLWKVEDESQLMFSGLQNCVSLDCVAMINEEHFATGSADGSIALWSFWKKRALHVRKQAHGTQNGSGRWIVALAVLPYSDLLASGSNEGELKLWKISENFRQLTPFFSYSIPGFINSINFAPNGKSIVVGAGKEHKDGRWWVDREARNQVVILPIKYTDGSDNNDVTIGDKTASGTVSGASAGGGGGIESGDESEEEEEELEEELEEEEEEIEE,not soluble
6,MGSDKIHHHHHHTPLPPVKQPHPATSQQHQEPVRGVWLATVSRLDWPPVTSVNTNSPAIRITQQQEALKGKLDKLKSLGINTVFFQIKPDGTALWPSKILPWSDMMTGHIGEDPGYDPLQFMLDEAHKRGMKVHAWFNPYRVSVNTKSGTVAELNRTLSQNPASVFVLHRDWIRTAGDRFVLDPGIPEARNWITSIVAEVVARYAIDGVQFDDYFYAESPGSVLNDGETFKKYGQGFGSKADWRRHNTQQLIEQVSRTIKQLKPEVEFGVSPAGVWRNRSHDAAGSDTRGAAAYDEAYADTRLWVQQGLLDYIAPQLYWPFARDAARYDVLAKWWADVVKPTSTRLYIGVALYKVGEPSKNEPDWMISGGVPELKKQLDLNESTPHIDGTILFRENYLNQPQTQEAVNYLRNRWNPI,not soluble
7,MGSDKIHHHHHHMKAIVFGGSGFIGSHIVNSLEADSVAYYSLEKGTNVKRNDAVWIQGDVTDYSKVEASMAGYDTVFFAVEDWAADEARNREILLNGIKNVVSAIKKASTDQKLVSFSMINQPSYPLEYFRTKRLVEDNTRVLKNGLVVRLSIVFGDGDHFTDRFVKLAEQVSHLPEEGNLAPVYVGDVVTVVNSIIKREGVYDICSNDNLPLIRIINYIRKNIGKKEIGSVKLEKGLSMLTETGLFSRYEAELMFQDYYRETSILDRYVKNPTSYLDFLRSILVEHTT,not soluble
8,MKTLLPTSTAGSLPKPSWLAEPEKLWSPWKLQGEELIDGKRDALRVALQEQELAGVDIVSDGEQTRQHFVTTFIEHLSGVDFENRKTVTIRNRYEASVPTVVGPVSRTKPVFVEDAKFLRQQTKQPIKWALPGPMTMIDTLYDDHYGSREKLAWEFAKILNQEAKELEAAGVDIIQFDEPAFNVFFDDVNEWGIACLERAIEGLKCETAVHICYGYGIKANTDWKQTLGTEWRQYEEVFPKLQQSNIDIISLECHNSRVPIELLELIRGKKVMVGAIDVATNEIETPEEVANTLREALKYVDADKLYPCTNCGMAPLSREVSTAKLNALSAGAEIVRRELSALEHHHHHH,not soluble
9,MGSDKIHHHHHHMILVTGANGLVGSFLCNELAGKGYRVKALVREKSDTSLLKAVAGSIELVYGDITDAGSLVDAMEDVMCVVHTAAVISFWNKKNKEMYQTNVVGTRNVVDVALEKGVKKMIHISSIAAIGRKATDTRIDEKNNWEESAVNTAYAVTKHQAELEIFRAVEEGLHAVIINPSVILGPGLKGTSSVRLFEYVQQKGKFYTDGDLNYVDVRDVVESIEYFISHETPAGERYILNGGTVSFKTFFEKIAEMLHTNPPSVKASDWMKQIVWRVEAIKAFITGKEPLITKSTARTATNKFEYSADKIMQLSQRSFRPLQDTIYWTCKQLF,not soluble
10,MMWKQAMTDVAEKTLTNIKRFNGRFPHVSEDGEHYELNNNNEWTNGFWSGILWLCYEYTNDPAFRQAAASTVRSFQQRMEQNLELDHHDIGFLYSLSSKAQWIIERDERAKQLTIEAADVLMKRWREKIELFQAWGPEGDLSNGGRIIVDCLMNLPLLFWASEVTGNPDYREAAIIHADKTRRFIVRGDDSTYHTFYFNQETGEALRGGTHQGYEDGSTWSRGQAWAIYGFAIAYRYTGNERYLETAKRTAKYFIENLPADYVAYWDFNAPITPDTKRDSSASAIASCGILELLSHLQETDPDKAFFQQSVQKQMTSLVENYASEKDAQGLIKRGSYSVRIGHAPDDYVIWGDYFYTEALMRLEKLRNGYWYEGKLEHHHHHH,soluble
11,MGETYDLLVIGGGINGVGIARDAAGRGLSVCLCEQDDLAAHTSSASTKLIHGGLRYLEQYEFALVGKALAEREVLLRLAPHIIWPLRFLLPHQPHLRPAWMIRAGLFLYDHLGGSKRSLPRSRRLSLRTHPVGQPLQESLRTGFVYSDAWVQDARLVVLNAMDAAKRGAQIHTRTRCVGAWRDAGFWYAELEGCDGRRRTVQSRALANAAGPWAVSFLDKVAAVPHQHALRLVKGSHIVVPKLFDHDHAYIFQQPDRRIVFAIPYEHDFTLIGTTDVDYEADPSAPKIDAAEVQYLCDAVNLYFQQQITPQDVVWNYSGVRPLLDDAEDNAAEVTRDYQLEVLTDGAPLLNVFGGKLTTYRKLAEEAVDRLTQALGARKPAWTARGEALPGGEQRDIASLLERVRTARPWLPAATAQRLVRNYGTCAEQLLGDAQDMAALGQHFGADLYQAEVDYLCAREWAQTADDILWRRSKLGLRVDAEARARLEAYLQTRPAAHANAQTHVVPALEHHHHHH,not soluble
12,MSDTEKYVARPAVGHLPLDDSWTPTSAEAIQDEPSPDEEEYKRQYTCRMVPNEGPLYQHYMLEAVAVADDEVKIPLEEVKEEPVELPAAVVHEVVALKPATRRESSISSDSGRGADCSTTSASALTSNTSMRRDRLVGTSNFGSQRSLWCELPEVRAAGLLEKLDDECKLRQEAYFEVITSEASYLRSLNVLITHFMASPQMLGSKSALSVLSDSDRKHLFSNIFAVRDCSERLLCDLETRLEENLILDDICDILSDHFDKHFEVYIKYCSNQVYQDRTLRRLKTENPGFLSAVQRLEENKQCQGLDMRSFLMLPMQRVTRYPLLLYAILDRITTTDDRYKTATDALTSSNRVVRDCNEGARRMERTEQLLDIDRRLIYKDADLKRIPLVSNSRYLVKKGVLTQLVERRSSNILQSRQKARTLHVFLFSDMIMITKKKLNGTFVCKDYAARRFVDMQPIEPDNPKIPLGATSNLVGRPHLFLCTLMRNARDKQTELLLSADSETDRERWLSAVRPPTSTNPEEKIYAEWDCPQALVVHAYQPSQADELQLNIGDSLNILRKMPDGWLYGERAGDGLGGWFPSSYVQAIINDHTRANNYRQRLRIIQAASGWHGNASPSSTRSGGMPLMDRLRRMSNPKTYFQSGTVGL,not soluble
13,MLKLGVIGTGAISHHFIEAAHTSGEYQLVAIYSRKLETAATFASRYQNIQLFDQLEVFFKSSFDLVYIASPNSLHFAQAKAALSAGKHVILEKPAVSQPQEWFDLIQTAEKNNCFIFEAARNYHEKAFTTIKNFLADKQVLGADFNYAKYSSKMPDLLAGQTPNVFSDRFAGGALMDLGIYPLYAAVRLFGKANDATYHAQQLDNSIDLNGDGILFYPDYQVHIKAGKNITSNLPCEIYTTDGTLTLNTIEHIRSAIFTDHQGNQVQLPIQQAPHTMTEEVAAFAHMIQQPDLNLYQTWLYDAGSVHELLYTMRQTAGIRFEAEK,soluble
14,MGSDKIHHHHHHMVKDKNDVGPKTVAILGAGGKMGARITRKIHDSAHHLAAIEIAPEGRDRLQGMGIPLTDGDGWIDEADVVVLALPDNIIEKVAEDIVPRVRPGTIVLILDAAAPYAGVMPERADITYFIGHPCHPPLFNDETDPAARTDYHGGIAKQAIVCALMQGPEEHYAIGADICETMWSPVTRTHRVTTEQLAILEPGLSEMVAMPFVETMVHAVDECADRYGIDRQAALDFMIGHLNVEIAMWFGYSPKVPSDAALRLMEFAKDIVVKEDWREALNPAKVKQAAELIAGK,not soluble
15,MQPTPTQRPEAIVHDEKAQLDFARDMSYGDYLHLDELLGAQHPLSPEHNEMLFIVQHQTSELWMKLMLHELRAAIAAIQQDRLQPAFKMLARVSKILEQLVSAWDVLATMTPPEYSALRPYLAHSSGFQSYQYRQIEYLLGNKNAAMLQPHAHRADLLAQVRAAFEAPSLYDEALRFLARSGLAVPAGALQRDWTQPYRADDQVEQAWLTVYRQSERYWNQYQLGEKLTDLEDAFRLWRFRHVTTVERIIGFKRGTGGTSGVTYLRKMLEVVLFPEIWKLRTDLLEHHHHHH,not soluble
16,MSLNFPHLSKQSLGLYPVVDDVSWIERLLPLGINTIQLRIKDPYQPDLEQQIARAIELGRQYDAQVFINDYWQLAIKHGAFGVHLGQEDIEDSNLSQLSTAGICLGLSTHGYYELLRIVQINPSYIALGHIFSTTTKQMPSKPQGLVRLALYQKLNDSIPYGESVGYPTVAIGGIDQSNAEQVWQCGVSSLAVVRAITLSESPKQVIEFFDQLMNTTSTSLVMEDYRAYEGHHHHHH,not soluble
